Measured values: US20220125837A1, “METHODS FOR CONTROLLED ELIMINATION OF THERAPEUTIC CELLS” (Bellicum Pharmaceuticals, Inc., priority 2014, published 2022)
Where a SMILES comes first, the peptide text is derived from it. The star is where a group is joined. Cbz = O=C(OCc1ccccc1)*; CH2F = FC*

Test system: F-Casp9M.I.GFPhigh-transduced T cells
Assay: Annexin V/7-AAD staining of iCasp9M GFPhigh T cells after CID
Type: cell-based, human
Details: 100 μM for 1 hour prior to adding CID
Procedure: CID (AP20187; ARIAD Pharmaceuticals) at indicated concentrations was added to transfected 293T cells or transduced CTLs. Adherent and nonadherent cells were harvested and washed with annexin binding buffer (BD Pharmingen, San Jose, Calif.). Cells were stained with annexin-V and 7-amino-actinomycin D (7-AAD) for 15 minutes according to the manufacturer's instructions (BD Pharmingen). Within 1 hour after staining, cells were analyzed by flow cytometry using CellQuest software (Becton Dickinson).
A representative example of 3 separate experiments is shown.
For clinical applications therefore, versions of the expression constructs with selectable markers that allow selection for high copy number, high levels of expression, or both high copy number and high levels of expression may be desirable. […] The dose response remained unchanged for at least 4 weeks after transduction.

Molecule | effect on CID-induced apoptosis
COC(=O)C[C@H](NC(=O)[C@H](C)NC(=O)[C@@H](NC(=O)OCc1ccccc1)C(C)C)C(=O)CF [zVAD-fmk] (Cbz-Val-Ala-Asp(OMe)-CH2F) | inhibited

Test system: PG13 packaging cells
Assay: not given
Type: cell-based
Details: not given

Molecule | CD19 mean fluorescence intensity of transduced PG13 cells, in words
D330E: chimeric modified Caspase-9 polypeptide (protein) VDGFGDVGALESLRGNADLAYILSMEPCGHCLIINNVNFCRESGLRTRTGSNIDCEKLRRRFSSLHFMVEVKGDLTAKKMVLALLELARQDHGALDCCVVVILSHGCQASHLQFPGAVYGTDGCPVSVEKIVNIFNGTSCPSLGGKPKLFFIQACGGEQKDHGFEVASTSPEDESPGSNPEPDATPFQEGLRTFDQLEAISSLPTPSDIFVSYSTFPGFVSWRDPKSGSWYVETLDDIFEQWAHSEDLQSLLLRVANAVSVKGIYKQMPGCFNFLRKKLFFKTSASRA | enhanced CD19 mean fluorescence intensity (MFI)

Same assay, conditions: upon HAT media treatment; HT1080 cells

Molecule | viral titers, in words
D330E: chimeric modified Caspase-9 polypeptide (protein) VDGFGDVGALESLRGNADLAYILSMEPCGHCLIINNVNFCRESGLRTRTGSNIDCEKLRRRFSSLHFMVEVKGDLTAKKMVLALLELARQDHGALDCCVVVILSHGCQASHLQFPGAVYGTDGCPVSVEKIVNIFNGTSCPSLGGKPKLFFIQACGGEQKDHGFEVASTSPEDESPGSNPEPDATPFQEGLRTFDQLEAISSLPTPSDIFVSYSTFPGFVSWRDPKSGSWYVETLDDIFEQWAHSEDLQSLLLRVANAVSVKGIYKQMPGCFNFLRKKLFFKTSASRA | higher viral titers

Test system: HEK293T/16 cells
Assay: Secreted alkaline phosphatase (SEAP) surrogate killing assay of iCasp9 mutants
Type: cell-based, human
Details: SEAP assay without AP1903; relative to wild type Caspase-9
Procedure: Early passage HEK293T/16 cells (ATCC, Manassas, Va.) were maintained in IMDM, GlutaMAX™ (Life Technologies, Carlsbad, Calif.) supplemented with 10% FBS, 100 U/mL penicillin, and 100 U/mL streptomycin until transfection in a humidified, 37° C., 5% CO2/95% air atmosphere. Cells in logarithmic-phase growth were transiently transfected with 800 ng to 2 μg of expression plasmid encoding iCasp9 mutants and 500 ng of an expression plasmid encoding SRα promoter driven SEAP per million cells in 15-mL conical tubes. […] GeneJammer® Transfection Reagent at a ratio of 3 μl per ug of plasmid DNA was used to transiently transfect HEK293T/16 cells in the absence of antibiotics. 100 μl or 2 mL of the transfection mixture was added to each well in 96-well or 6-well plate, respectively.
Briefly, after 65° C. heat denaturation for 45 minutes to reduce background caused by endogenous (and serum-derived) alkaline phosphatases that are sensitive to heat, 5 μl of supernatants was added to 95 μl of PBS and added to 100 μl of substrate buffer, containing 1 μl of 100 mM 4-methylumbelliferyl phosphate (4-MUP; Sigma, St. Louis, Mo.) re-suspended in 2 M diethanolamine. Hydrolysis of 4-MUP by SEAP produces a fluorescent substrate with excitation/emission (355/460 nm), which can be easily measured. […] 1000-ul of the mixture was seeded onto each well of a 96-well plate. […] For the assay, 4-methylumbelliferyl phosphate substrate was hydrolyzed by SEAP to 4-methylumbelliferon, a metabolite that can be excited with 364 nm and detected with an emission filter of 448 nm. Since SEAP is used as a marker for cell viability, reduced SEAP reading corresponds with increased iCaspase-9 activities.

Molecule | basal activity, in words
S144A: chimeric modified Caspase-9 polypeptide (protein) VDGFGDVGALEALRGNADLAYILSMEPCGHCLIINNVNFCRESGLRTRTGSNIDCEKLRRRFSSLHFMVEVKGDLTAKKMVLALLELARQDHGALDCCVVVILSHGCQASHLQFPGAVYGTDGCPVSVEKIVNIFNGTSCPSLGGKPKLFFIQACGGEQKDHGFEVASTSPEDESPGSNPEPDATPFQEGLRTFDQLDAISSLPTPSDIFVSYSTFPGFVSWRDPKSGSWYVETLDDIFEQWAHSEDLQSLLLRVANAVSVKGIYKQMPGCFNFLRKKLFFKTSASRA | lower basal activity
D330S: chimeric modified Caspase-9 polypeptide (protein) VDGFGDVGALESLRGNADLAYILSMEPCGHCLIINNVNFCRESGLRTRTGSNIDCEKLRRRFSSLHFMVEVKGDLTAKKMVLALLELARQDHGALDCCVVVILSHGCQASHLQFPGAVYGTDGCPVSVEKIVNIFNGTSCPSLGGKPKLFFIQACGGEQKDHGFEVASTSPEDESPGSNPEPDATPFQEGLRTFDQLSAISSLPTPSDIFVSYSTFPGFVSWRDPKSGSWYVETLDDIFEQWAHSEDLQSLLLRVANAVSVKGIYKQMPGCFNFLRKKLFFKTSASRA | less basal activity than wild type Caspase-9
D330G: chimeric modified Caspase-9 polypeptide (protein) VDGFGDVGALESLRGNADLAYILSMEPCGHCLIINNVNFCRESGLRTRTGSNIDCEKLRRRFSSLHFMVEVKGDLTAKKMVLALLELARQDHGALDCCVVVILSHGCQASHLQFPGAVYGTDGCPVSVEKIVNIFNGTSCPSLGGKPKLFFIQACGGEQKDHGFEVASTSPEDESPGSNPEPDATPFQEGLRTFDQLGAISSLPTPSDIFVSYSTFPGFVSWRDPKSGSWYVETLDDIFEQWAHSEDLQSLLLRVANAVSVKGIYKQMPGCFNFLRKKLFFKTSASRA | less basal activity than wild type Caspase-9
S144D: chimeric modified Caspase-9 polypeptide (protein) VDGFGDVGALEDLRGNADLAYILSMEPCGHCLIINNVNFCRESGLRTRTGSNIDCEKLRRRFSSLHFMVEVKGDLTAKKMVLALLELARQDHGALDCCVVVILSHGCQASHLQFPGAVYGTDGCPVSVEKIVNIFNGTSCPSLGGKPKLFFIQACGGEQKDHGFEVASTSPEDESPGSNPEPDATPFQEGLRTFDQLDAISSLPTPSDIFVSYSTFPGFVSWRDPKSGSWYVETLDDIFEQWAHSEDLQSLLLRVANAVSVKGIYKQMPGCFNFLRKKLFFKTSASRA | lower basal activity
D330V: chimeric modified Caspase-9 polypeptide (protein) VDGFGDVGALESLRGNADLAYILSMEPCGHCLIINNVNFCRESGLRTRTGSNIDCEKLRRRFSSLHFMVEVKGDLTAKKMVLALLELARQDHGALDCCVVVILSHGCQASHLQFPGAVYGTDGCPVSVEKIVNIFNGTSCPSLGGKPKLFFIQACGGEQKDHGFEVASTSPEDESPGSNPEPDATPFQEGLRTFDQLVAISSLPTPSDIFVSYSTFPGFVSWRDPKSGSWYVETLDDIFEQWAHSEDLQSLLLRVANAVSVKGIYKQMPGCFNFLRKKLFFKTSASRA | less basal activity than wild type Caspase-9
D330E: chimeric modified Caspase-9 polypeptide (protein) VDGFGDVGALESLRGNADLAYILSMEPCGHCLIINNVNFCRESGLRTRTGSNIDCEKLRRRFSSLHFMVEVKGDLTAKKMVLALLELARQDHGALDCCVVVILSHGCQASHLQFPGAVYGTDGCPVSVEKIVNIFNGTSCPSLGGKPKLFFIQACGGEQKDHGFEVASTSPEDESPGSNPEPDATPFQEGLRTFDQLEAISSLPTPSDIFVSYSTFPGFVSWRDPKSGSWYVETLDDIFEQWAHSEDLQSLLLRVANAVSVKGIYKQMPGCFNFLRKKLFFKTSASRA | less basal activity than wild type Caspase-9
S196D: chimeric modified Caspase-9 polypeptide (protein) VDGFGDVGALESLRGNADLAYILSMEPCGHCLIINNVNFCRESGLRTRTGSNIDCEKLRRRFSDLHFMVEVKGDLTAKKMVLALLELARQDHGALDCCVVVILSHGCQASHLQFPGAVYGTDGCPVSVEKIVNIFNGTSCPSLGGKPKLFFIQACGGEQKDHGFEVASTSPEDESPGSNPEPDATPFQEGLRTFDQLDAISSLPTPSDIFVSYSTFPGFVSWRDPKSGSWYVETLDDIFEQWAHSEDLQSLLLRVANAVSVKGIYKQMPGCFNFLRKKLFFKTSASRA | lower basal activity
S196A: chimeric modified Caspase-9 polypeptide (protein) VDGFGDVGALESLRGNADLAYILSMEPCGHCLIINNVNFCRESGLRTRTGSNIDCEKLRRRFSALHFMVEVKGDLTAKKMVLALLELARQDHGALDCCVVVILSHGCQASHLQFPGAVYGTDGCPVSVEKIVNIFNGTSCPSLGGKPKLFFIQACGGEQKDHGFEVASTSPEDESPGSNPEPDATPFQEGLRTFDQLDAISSLPTPSDIFVSYSTFPGFVSWRDPKSGSWYVETLDDIFEQWAHSEDLQSLLLRVANAVSVKGIYKQMPGCFNFLRKKLFFKTSASRA | lower basal activity
D330N: chimeric modified Caspase-9 polypeptide (protein) VDGFGDVGALESLRGNADLAYILSMEPCGHCLIINNVNFCRESGLRTRTGSNIDCEKLRRRFSSLHFMVEVKGDLTAKKMVLALLELARQDHGALDCCVVVILSHGCQASHLQFPGAVYGTDGCPVSVEKIVNIFNGTSCPSLGGKPKLFFIQACGGEQKDHGFEVASTSPEDESPGSNPEPDATPFQEGLRTFDQLNAISSLPTPSDIFVSYSTFPGFVSWRDPKSGSWYVETLDDIFEQWAHSEDLQSLLLRVANAVSVKGIYKQMPGCFNFLRKKLFFKTSASRA | less basal activity than wild type Caspase-9
S183A: chimeric modified Caspase-9 polypeptide (protein) VDGFGDVGALESLRGNADLAYILSMEPCGHCLIINNVNFCRESGLRTRTGANIDCEKLRRRFSSLHFMVEVKGDLTAKKMVLALLELARQDHGALDCCVVVILSHGCQASHLQFPGAVYGTDGCPVSVEKIVNIFNGTSCPSLGGKPKLFFIQACGGEQKDHGFEVASTSPEDESPGSNPEPDATPFQEGLRTFDQLDAISSLPTPSDIFVSYSTFPGFVSWRDPKSGSWYVETLDDIFEQWAHSEDLQSLLLRVANAVSVKGIYKQMPGCFNFLRKKLFFKTSASRA | lower basal activity
F319W: chimeric modified Caspase-9 polypeptide (protein, UniProt P55211 1-416, looked up, variant F319W, fused to FKBP12 F36V dimerization domain, chimeric modified Caspase-9 polypeptide) MDEADRRLLRRCRLRLVEELQVDQLWDALLSRELFRPHMIEDIQRAGSGSRRDQARQLIIDLETRGSQALPLFISCLEDTGQDMLASFLRTNRQAAKLSKPTLENLTPVVLRPEIRKPEVLRPETPRPVDIGSGGFGDVGALESLRGNADLAYILSMEPCGHCLIINNVNFCRESGLRTRTGSNIDCEKLRRRFSSLHFMVEVKGDLTAKKMVLALLELAQQDHGALDCCVVVILSHGCQASHLQFPGAVYGTDGCPVSVEKIVNIFNGTSCPSLGGKPKLFFIQACGGEQKDHGFEVASTSPEDESPGSNPEPDATPWQEGLRTFDQLDAISSLPTPSDIFVSYSTFPGFVSWRDPKSGSWYVETLDDIFEQWAHSEDLQSLLLRVANAVSVKGIYKQMPGCFNFLRKKLFFKTS | lower basal activity
